# Measured values: publication PMC3114845, “Bordetella pertussis Autotransporter Vag8 Binds Human C1 Esterase Inhibitor and Confers Serum Resistance” (PLoS ONE, 2011)
# T1: histidine-tagged Vag8 passenger domain (residues Val40 to Leu610) (Bordetella pertussis, UniProt Q79GN7 40-610)
# T1 construct: autotransporter Vag8, Bordetella pertussis BP338 (Tohama I derivative), predicted passenger domain, residues Val40 to Leu610; Cloned with BamHI and HindIII into pET30b; also called purified Vag8 passenger; recombinant Vag8
# T1 sequence: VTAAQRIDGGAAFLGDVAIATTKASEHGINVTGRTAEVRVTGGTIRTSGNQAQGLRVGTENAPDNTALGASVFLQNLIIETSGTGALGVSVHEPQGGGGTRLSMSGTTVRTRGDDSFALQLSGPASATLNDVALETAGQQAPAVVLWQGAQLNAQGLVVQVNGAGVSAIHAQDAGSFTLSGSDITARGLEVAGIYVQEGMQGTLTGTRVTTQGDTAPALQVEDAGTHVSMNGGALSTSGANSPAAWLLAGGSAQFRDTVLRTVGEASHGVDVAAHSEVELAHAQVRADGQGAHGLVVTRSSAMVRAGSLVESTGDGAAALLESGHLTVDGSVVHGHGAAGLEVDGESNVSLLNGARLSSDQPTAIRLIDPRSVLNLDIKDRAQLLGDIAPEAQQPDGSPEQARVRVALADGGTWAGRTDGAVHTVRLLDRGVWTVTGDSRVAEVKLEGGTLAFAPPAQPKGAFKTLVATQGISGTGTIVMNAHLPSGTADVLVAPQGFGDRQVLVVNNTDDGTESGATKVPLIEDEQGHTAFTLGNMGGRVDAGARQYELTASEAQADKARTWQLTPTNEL
# B1: purified human C1 esterase inhibitor (natural protein)
# chain: NPNATSSSSQDPESLQDRGEGKVATTVISKMLFVEPILEVSSLPTTNSTTNSATKITANTTDEPTTQPTTEPTTQPTIQPTQPTTQLPTDSPTQPTTGSFCPGPVTLCSDLESHSTEAVLGDALVDFSLKLYHAFSAMKKVETNMAFSPFSIASLLTQVLLGAGENTKTNLESILSYPKDFTCVHQALKGFTTKGVTSVSQIFHSPDLAIRDTFVNASRTLYSSSPRVLSNNSDANLELINTWVAKNTNNKISRLLDSLPSDTRLVLLNAIYLSAKWKTTFDPKKTRMEPFHFKNSVIKVPMMNSKKYPVAHFIDQTLKAKVGQLQLSHNLSLVILVPQNLKHRLEDMEQALSPSVFKAIMEKLEMSKFQPTLLTLPRIKVTTSQDMLSIMEKLEFFDFSYDLNLCGLTEDPDLQVSAMQHQTVLELTETGVEAAAASAISVARTLLVFEVQQPFLFVLWDQQHKFPVFMGRVYDPRA
# notes: also called C1inh; purified C1inh; source: bought: Advanced Research Technologies (purified human C1inh)
# Target: T1, histidine-tagged Vag8 passenger domain …
# Assay: ELISA; MaxiSorp plates coated with two-fold dilutions of purified passenger domain (top 5 µg/ml, PBS pH 7.4, overnight 4°C); probed 1 h at room temperature with 10 µg/ml purified human C1inh; detected with goat anti-C1inh
# Details: both partners purified
binder,measurement,value
B1,binding result,binds
